The results in this text go back to publication PMC4795942 (Protein Engineering, Design and Selection, 2016).

Positions count from the first letter of the chain named. Names and notes keep the numbering of the source.

In the experiment the target is biotinylated MmQSOX1Trx with a carboxy-terminal AviTag (Mus musculus, UniProt Q8BND5, biotin (on the AviTag)). Kind of experiment: flow cytometry on cells.

B1: scFv492.1 template c with H49S S50M Y52Q (top binder of the CDR L2 library) displayed on yeast (scFv, V domains shown)
VH: QVQLKQSGPGLVAPSQSLSITCTVSGFSLTGYGVNWVRQSPGKGLEWLGMIWGDGRTEYKSALKSRLSITKDNSKSQVFLKMNSLQTDDTARYFCASDSKDPGSFAYWGQGTLVTVSA
VL: DVVMTQTHKFMSTSVGDRVSITCKASQDVSTAVAWYQQKSGQSPKLLISMASQRYTGVPDRFTGSGSGTDFTFTISSVQAEDLAVYYCQQHYAIPLTFGAGTKLELK
For the molecule B1, the binding result was “binds”.

B2: scFv492.1 S93A Y99S Y100K G101D S102P D58E T31G H49S S50M Y52Q (mutant d) displayed on yeast (scFv, V domains shown)
VH: B1 VH
VL: B1 VL with T31G
Consider B2, for which the binding result is recorded as “binds”.
